Columns and labels:
[1] = target: T1, human FIXa (activated coagulation factor IX) (human, UniProt P00740 47-191; P00740 227-461); experiment: cell-based or functional assay
[2] = target: T1, human FIXa (activated coagulation …); experiment: ELISA, FIXa antigen coated on the plate, anti-mouse secondary antibody, OD450
Method: After culturing hybridoma cells for 7 days, ELISA was used for detecting positive antibodies. 0.1 μg/100 μl of FIXa antigen was coated on an ELISA plate (CORNING), incubated at 37° C. for 1.5 h; then blocked with 2% BSA at 37° C. for 1 h; and then primary antibody, the supernatant of cultured cells, was added and incubated at 37° C. for 1.5 h. After that, mouse secondary antibody was added and incubated at 37° C. for 30 min. Finally, chromogenic substrate TMB (Thermo) was added for 5 min at room temperature in dark, then stop solution 2M H₂SO₄ was added to terminate the reaction. Antibody-positive cell lines were screened according to the absorbance value measured at 450 nm by a spectrophotometer (Thermo Fisher scientific company). Then the cell lines were cultured for cloning in a semi-solid medium ([…] company), with single clones selected into 96-well plates after 7 days. […]
Following the instructions provided in the Sigma company's subtype detection kit, the antigen was coated, blocked, incubated with primary antibody (0.1 μg/100 μl), incubated with isotype-specific reagent at room temperature for 30 minutes, incubated with secondary antibody (R-antiGoat-HRP) for chromogen development, with stop solution added to terminate the reaction, and finally the absorbance was measured at 450 nm. […]

T1 sequence (P00740 47-191 limits assumed, chain 1 of 2): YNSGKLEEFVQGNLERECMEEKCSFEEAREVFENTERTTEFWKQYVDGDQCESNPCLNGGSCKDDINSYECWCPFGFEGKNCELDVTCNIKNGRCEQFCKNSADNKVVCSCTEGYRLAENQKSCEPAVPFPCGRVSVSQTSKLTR
T1 sequence (P00740 227-461 limits assumed, chain 2 of 2): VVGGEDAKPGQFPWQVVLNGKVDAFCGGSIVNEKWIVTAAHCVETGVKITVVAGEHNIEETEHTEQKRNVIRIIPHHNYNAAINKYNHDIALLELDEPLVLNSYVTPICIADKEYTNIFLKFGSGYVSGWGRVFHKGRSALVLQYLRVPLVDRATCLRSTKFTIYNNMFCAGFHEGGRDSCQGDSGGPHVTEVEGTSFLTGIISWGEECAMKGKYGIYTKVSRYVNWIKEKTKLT

B1: FIXa-4 antibody (antibody, V domains shown)
VH: QVTLKESGPGILKPSQTLSLTCSFSGFSLNTPGMGVGWIRQPSGKGLEWLAHIWWDDDKYYNPSLKSQLTISKDTSRNQVFLKITSVDTADTATYYCARSDDVSYALDYWGQGTSVTVSS
VL: DIQMTQSPASLSASVGETVTITCRASENIDSYLAWYQQKQGKSPQLLVYNAKTLADGVPSRFSGSGSGTQFSLKIDSLQPEDFGSHYCQHHDGTTWTFGGGTKLEIK
notes: A subtype test is described, but the isotype and constant regions are not reported; also called anti-FIXa monoclonal antibody; FIX-4 antibody
activated partial thromboplastin time (APTT), IC50 [1]: 7.71 µg/mL | activated partial thromboplastin time (APTT), fold over control [1]: 3.5 times | EC50 [2]: 0.0947 µg/mL

— US20240294668A1 (SHANGHAI SYNVIDA BIOTECHNOLOGY, published 2024)
